Experimental findings from US9066906B2, “Lunasin-containing complex and purification of lunasin from plants” (University of Louisville Research Foundation, Inc., priority 2009, dated 2015) are described below.

Entries after “also recorded” stand apart in the source; their conditions may differ.

The subject of assay [1] is SK-BR-3 human breast cancer cells. Nature of the assay: MTS cell proliferation assay, lunasin in combination with curcumin. The assay is classed as cell-based. The following applies: FIG. 7; for effect on the antiproliferative effect of curcumin: SK-BR-3 breast cancer cells, in combination with curcumin. The method, then:
FIGS. 7A and 7B include the results of MTS cell proliferation assays, using SK-BR-3 human breast cancer cells, performed in the absence or presence of either synthetic lunasin or purified soybean-derived lunasin in combination with curcumin over a 1-3 day period.
MTS cell proliferation assays using SK-BR-3 human breast cancer cells were performed in the absence or presence of either synthetic lunasin or purified soybean-derived lunasin in combination with curcumin over a 2-3 day period. SK-BR-3 cells, whose growth were unaffected by lunasin alone, were inhibited up to 98% when combined with curcumin.
With reference to FIG. 7, synthetic lunasin and highly purified soybean-derived lunasin were used in combination with curcumin in an in vitro cell proliferation assays to assess the activity of lunasin against specific cancer cell lines.

In assay [2] the test system is H1299, non-small cell lung cancer. Nature of the assay: MTS cell proliferation assay. The assay is classed as cell-based, human. The following applies: lunasin 30 or 100 μM, complex 10 or 30 μM, 72 hours, FIG. 4. The method, then:
(§1) The ability of lunasin, purified from soybean white flake in accordance with the presently-disclosed subject matter, to inhibit the proliferation of specific cancer cell lines was studied. Recent studies have shown that lunasin and lunasin-containing protein preparations can inhibit the proliferation of several cancer cell lines in vitro. To further assess and confirm the biological activity of lunasin and the lunasin-containing complex, cell proliferation assays were conducted with a panel of established cancer cell lines.
(§2) A panel of cancer cell lines was collected from colleagues or purchased from the American Type Culture Collection. Cells were grown in the appropriate medium and treated with PBS (control), lunasin (30 or 100 μM), or the lunasin-containing complex (10 or 30 μM) for 72 hours. Cell viability was assessed using a standard [3-(4,5-dimethylthiazol-2-yl)-5-(3-carboxymethoxy-phenyl)-2-(4-sulfo-phenyl)-2H-tetrazolium (MTS) assay. The data shown (FIG. 4) represent the number of viable cells relative to the PBS-treated controls. The human cell lines tested were: H661, non-small cell lung cancer; H1299, non-small cell lung cancer; SKBR3, adenocarcinoma mammary gland origin; MDA-MB-231, adenocarcinoma, mammary gland origin; MCF-7, adenocarcinoma, mammary gland origin; and HT-29, adenocarcinoma, colon origin.
(In general: Tetrazolium dyes change colour on reduction, which living cells bring about.)

In assay [3] the test system is H661, non-small cell lung cancer. Nature of the assay: MTS cell proliferation assay. Particulars: lunasin 30 or 100 μM, complex 10 or 30 μM, 72 hours, FIG. 4. The assay is classed as cell-based, human. As to the method: as §1, §2
Assay [4] deals with MDA-MB-231, adenocarcinoma, mammary gland origin. Nature of the assay: MTS cell proliferation assay. In kind it is cell-based, human. The following applies: lunasin 30 or 100 μM, complex 10 or 30 μM, 72 hours, FIG. 4. As to the method:
as §1, §2

For the next assay, the target named is human histone H4 (hH4) (Homo sapiens, UniProt P62805). Nature of the assay: in vitro histone binding assay (microtiter plate, anti-lunasin antibody, absorbance at 450 nm). The following applies: FIG. 3. The text has this: (§3) The ability of lunasin, purified from soybean white flake in accordance with the presently-disclosed subject matter, to bind the cores histones H3 and H4 was studied. […] To confirm the biological activity of the lunasin purified from soybean white flake using the methods in the subject matter disclosed herein, an in vitro binding assay was used to assess binding to the human H3 and H4 proteins.
(§4) Increasing amounts of histone 3.3 (hH3.3) and histone 4 (hH4) were bound to wells of a […] microtiter plate. Different amounts of either synthetic lunasin or purified lunasin were added to the wells and allowed to bind. The concentration of lunasin bound was determined using a polyclonal antibody against lunasin and a horseradish peroxidase conjugated antibody that recognizes the lunasin antibody. Binding was quantitated by measuring the absorbance at 450 nm.

The next assay deals with human histone H3 (hH3.3) (Homo sapiens, UniProt P84243). Described as above. Particulars: FIG. 3.
Text: as §3, §4

Assay [5] concerns panel of cancer cell lines. As to the kind of experiment: MTS cell proliferation assays with a panel of established cancer cell lines. Particulars: 72 hours, FIG. 4. The assay is classed as cell-based, human. The method, then: as §1, §2
The test system of assay [6] is SKBR3, adenocarcinoma mammary gland origin. Nature of the assay: MTS cell proliferation assay. In kind it is cell-based, human. The following applies: complex 10 or 30 μM, 72 hours, FIG. 4. The method, then:
as §1, §2

Assay [7] has as its system HT-29, adenocarcinoma, colon origin. As to the kind of experiment: MTS cell proliferation assay. The assay is classed as cell-based, human. The following applies: complex 10 or 30 μM, 72 hours, FIG. 4. As to the method:
as §1, §2

In assay [8] the test system is MCF-7, adenocarcinoma, mammary gland origin. As to the kind of experiment: MTS cell proliferation assay. Particulars: complex 10 or 30 μM, 72 hours, FIG. 4. In kind it is cell-based, human. The method, then:
as §1, §2

For the molecule lunasin, in [1] (without curcumin, 2-3 day period), the “growth of SK-BR-3 cells, lunasin alone” value is “unaffected”.
Take “soybean-derived lunasin: lunasin polypeptide purified from soybean white flake, 5139.25 Da, corresponding to SEQ ID NO: 2 (additional C-terminal Asn) (SKWQHQQDSCRKQLQGVNLTPCEKHIMEKIQGRGDDDDDDDDDN; Glycine max)”: the “effect on the antiproliferative effect of curcumin” value in [1] was “significantly enhanced the antiproliferative effect of curcumin”. The “growth/proliferation of H1299 cells (viable cells relative to PBS-treated controls)” value in assay [2] is “minor effect”. Also, the “growth/proliferation of H661 cells (viable cells relative to PBS-treated controls)” value in assay [3] is reported as “significantly inhibit the growth”. In addition, in assay [4], the “growth/proliferation of MDA-MB-231 cells (viable cells relative to PBS-treated controls)” value is listed as “minor effect”. Besides, in the assay with human histone H4 (hH4), the “binding to human histone H4” value is “affinity greater than that observed using a synthetic lunasin; also recorded: bound to both H4 and H3 in a dose dependent manner”; the “preference of binding, H4 versus H3” value was “higher affinity for H4 than for H3”. Besides, the “binding to human histone H3” value with human histone H3 (hH3.3) is “affinity greater than that observed using a synthetic lunasin; also recorded: bound to both H4 and H3 in a dose dependent manner”.
For the molecule “synthetic lunasin: synthetic lunasin created by peptide synthesis, comprised of SEQ ID NO: 1 [reference compound]”, the “effect on the antiproliferative effect of curcumin” value in [1] is on record as “significantly enhanced the antiproliferative effect of curcumin”. Moreover, in the assay with human histone H4 (hH4), the “binding to human histone H4” value is “binding was lower than observed using the soybean-derived lunasin” and the “preference of binding, H4 versus H3” value is “more binding to H4 compared to H3”. For the same molecule, the “binding to human histone H3” value in the assay with human histone H3 (hH3.3) is recorded as “binding was lower than observed using the soybean-derived lunasin”.

B1: lunasin-containing complex: lunasin polypeptide of SEQ ID NO: 2 linked by disulfide bridges to a second polypeptide of SEQ ID NO: 3, 14.1 kDa, from soybean (protein)
chain 1: SKWQHQQDSCRKQLQGVNLTPCEKHIMEKIQGRGDDDDDDDDDN
chain 2: EGKDEDEEEEGHMQKCCTEMSELRSPKCQCKALQKIMENQSEELEEKQKKKMEKELINLATMCRFGPMIQCDLSSDD
modifications: disulfide-linked complex; Glycine max
Consider B1, for which the “antiproliferative effectiveness compared with lunasin peptide alone” value in assay [5] was “more effective than the lunasin peptide alone”. Also, the “proliferation of SKBR3 cells (viable cells relative to PBS-treated controls)” value in assay [6] is recorded as “reduced proliferation”. In addition, the “growth/proliferation of H1299 cells (viable cells relative to PBS-treated controls)” value in [2] was “most sensitive”. Moreover, in assay [3], the “growth/proliferation of H661 cells (viable cells relative to PBS-treated controls)” value is “most sensitive”. The “proliferation of HT-29 cells (viable cells relative to PBS-treated controls)” value in assay [7] is “reduced proliferation”. Further, the “proliferation of MCF-7 cells (viable cells relative to PBS-treated controls)” value in assay [8] is “reduced proliferation”. Moreover, the “growth/proliferation of MDA-MB-231 cells (viable cells relative to PBS-treated controls)” value in assay [4] was “most sensitive”.
